This note sets out measurements from US20170281764A1 (JN BIOSCIENCES, published 2017).

Assay [1] deals with T1, human TIGIT on cells (Jurkat-TIGIT cells; human T cells, NK cells and other blood cells) (human, UniProt Q495A1 22-244).
T1 sequence: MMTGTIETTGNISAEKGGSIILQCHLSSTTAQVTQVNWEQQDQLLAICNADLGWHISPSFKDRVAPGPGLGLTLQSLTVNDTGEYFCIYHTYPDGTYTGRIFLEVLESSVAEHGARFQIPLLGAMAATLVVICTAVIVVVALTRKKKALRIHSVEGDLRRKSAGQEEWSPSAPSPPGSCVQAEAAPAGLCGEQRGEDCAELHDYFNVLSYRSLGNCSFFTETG
The assay can be described thus: cell-based or functional assay.

Assay [2] concerns the target T2, extracellular region of human TIGIT fused to FLAG and GPI (hTIGIT-GPI), on the surface of NS0 cells (human).
T2 construct: The GPI signal is processed when the anchor is attached; also called NS0-hTIGIT cells
T2 chain: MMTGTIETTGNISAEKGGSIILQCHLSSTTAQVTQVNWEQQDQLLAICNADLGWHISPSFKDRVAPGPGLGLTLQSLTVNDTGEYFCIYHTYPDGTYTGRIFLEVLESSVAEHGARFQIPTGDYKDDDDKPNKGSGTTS
The assay can be described thus: flow cytometry on NS0-hTIGIT cells. As to the method: Binding of HuTIG1-IgG1.AA to human TIGIT was also examined by flow cytometry. NS0-hTIGIT cells (8×10⁵ cells) were incubated in 160 μl of FACS Buffer (PBS containing 0.5% bovine serum albumin and 0.05% sodium azide) in the presence (or absence) of various concentrations of HuTIG1-IgG1.AA, starting at 10 μg/ml and serial 2-fold dilutions, for 20 min at 4° C. After washing with FACS Buffer, HuTIG1-IgG1.AA binding on NS0-hTIGIT cells were detected with PE-labeled goat anti-human IgG antibody in FACS Buffer. After incubation for 20 min and washing with FACS Buffer, the cells were subjected to flow cytometry using a FACScan flow cytometer (BD Biosciences, San Jose, Calif.) to obtain the mean channel fluorescence (MCF) at each antibody concentration. […] The EC₅₀ value was 60 ng/ml.

The target of assay [3] is T3, HA-tagged human TIGIT with mutation N49A, on CHO-K1 cells (human, UniProt Q495A1 22-244).
T3 sequence: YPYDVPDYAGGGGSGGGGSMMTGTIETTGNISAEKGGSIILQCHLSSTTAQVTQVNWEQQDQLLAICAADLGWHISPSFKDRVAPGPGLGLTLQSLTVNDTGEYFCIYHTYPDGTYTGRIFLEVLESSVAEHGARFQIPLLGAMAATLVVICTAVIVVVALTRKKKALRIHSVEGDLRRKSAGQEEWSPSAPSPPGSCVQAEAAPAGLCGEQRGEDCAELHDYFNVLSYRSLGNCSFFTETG
The assay can be described thus: flow cytometry on CHO-K1 cells transiently expressing HA-tagged TIGIT mutant; N49A mutant. As to the method:
(§1) For flow cytometry analysis of the anti-hTIGIT antibody binding epitope, HA-tagged human TIGIT proteins with or without single amino acid mutation were transiently transfected into CHO-K1 cells. After 24 hr, transfected cells were suspended in HBSS buffer (Thermo Fisher Scientific, Cat#14175095), and incubated with HuTIG1-IgG1.AA antibody at varying concentrations in 50 μL volume. After 1 hr incubation at 4° C., cells were washed and a second incubation with 50 μL Alexa488 conjugated anti-human IgG(H+L) secondary antibody (Thermo Fisher Scientific, Cat#A-11013) was performed to detect cells bound by antibody. Cells were incubated with an anti-HA antibody (Sigma, Cat# H7411) as a positive control, and non-transfected CHO-K1 cells were used as a negative control. The cells were analyzed on an Attune NxT Cytometer (Thermo Fisher Scientific) and the data were processed using FlowJo software. For each mutant, the saturating antibody binding MFI (mean fluorescence intensity) were normalized to 100% POC (percent of control), and no primary antibody binding control MFI were normalized to 0% POC. Data were then fit to a four parameter non-linear sigmoidal curve using GraphPad Prism 7 curve fitting using following formula: Y=Bottom+(Top−Bottom)/(1+10^{((Log EC}^₅₀^{-X)*HillSlope)}). […]

The target in assay [4] is T4, HA-tagged human TIGIT with mutation Q35A, on CHO-K1 cells (human, UniProt Q495A1 22-244).
T4 construct: Built as for m17
T4 sequence: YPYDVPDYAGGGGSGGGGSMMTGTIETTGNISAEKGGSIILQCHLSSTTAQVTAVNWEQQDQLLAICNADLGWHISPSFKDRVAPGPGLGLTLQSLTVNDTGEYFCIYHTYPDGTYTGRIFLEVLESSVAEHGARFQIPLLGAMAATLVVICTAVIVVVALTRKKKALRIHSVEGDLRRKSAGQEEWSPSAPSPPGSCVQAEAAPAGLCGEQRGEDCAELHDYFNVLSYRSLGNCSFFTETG
The assay can be described thus: flow cytometry on CHO-K1 cells transiently expressing HA-tagged TIGIT mutant; Q35A mutant. As to the method:
as §1

Assay [5] addresses T5, HA-tagged human TIGIT, wild type, transiently expressed on CHO-K1 cells (human, UniProt Q495A1 22-244).
T5 sequence: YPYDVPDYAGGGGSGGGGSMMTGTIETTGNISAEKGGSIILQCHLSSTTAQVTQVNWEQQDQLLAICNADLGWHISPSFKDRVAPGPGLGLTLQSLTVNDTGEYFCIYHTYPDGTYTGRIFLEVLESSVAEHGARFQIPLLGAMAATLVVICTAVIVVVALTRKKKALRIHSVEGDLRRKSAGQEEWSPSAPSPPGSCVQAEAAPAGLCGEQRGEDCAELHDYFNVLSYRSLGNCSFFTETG
As to the kind of experiment: flow cytometry on CHO-K1 cells transiently expressing HA-tagged human TIGIT; wild type TIGIT. How it is done: as §1

B1: HuTIG1-IgG1.AA (humanized IgG1/kappa form of TIG1, L234A/L235A) (antibody)
heavy: not shown
light: DIQMTQSPSSLSASVGDRVTITCRASKSISKYLAWYQQKPGKAPKLLIYSGSTLQSGVPSRFSGSGSGTDFTLTISSLQPEDFATYYCQQHNEYPWTFGGGTKVEIKRTVAAPSVFIFPPSDEQLKSGTASVVCLLNNFYPREAKVQWKVDNALQSGNSQESVTEQDSKDSTYSLSSTLTLSKADYEKHKVYACEVTHQGLSSPVTKSFNRGEC
notes: Mature full chains; also called humanized TIG1
B1: the “increase of K562 target cell killing by purified NK cells, 10 µg/ml antibody, relative to 'No Antibody' or Rituxan” value in assay [1] worked out at 28%. Also, the EC50 in assay [2] amounted to 0.06 µg/mL; in assay [3], 17.7 nM; in assay [4], 176 nM; in assay [5] it was 1.28 nM.
